The test deals with recombinant SARS-CoV-2 RBD (His-tagged SARS-CoV-2 RBD fusion protein) (SARS-CoV-2), P0DTC2. The following applies: remark: other sources report otherwise.

Values joined by “and” are separate entries in the source; they are usually repeats but may differ in a detail not shown here. Identical values can stand only once.

B1: DC-SIGN.Fc protein, Q9NNX6 59-404 (Fc fusion)
chain: QVSKVPSSISQEQSRQDAIYQNLTQLKAAVGELSEKSKLQEIYQELTQLKAAVGELPEKSKLQEIYQELTRLKAAVGELPEKSKLQEIYQELTWLKAAVGELPEKSKMQEIYQELTRLKAAVGELPEKSKQQEIYQELTRLKAAVGELPEKSKQQEIYQELTRLKAAVGELPEKSKQQEIYQELTQLKAAVERLCHPCPWEWTFFQGNCYFMSNSQRNWHDSITACKEVGAQLVVIKSAEEQNFLQLQSSRSNRFTWMGLSDLNQEGTWQWVDGSPLLPSFKQYWNRGEPNNVGEEDCAEFSGNGWNDDKCNLAKFWICKKSAASCSRDEEQFLSPAPATPNPPPA
Usually Kd stands for the equilibrium constant for the complex coming apart. For orientation: koff means the rate constant with which the complex falls apart. By kon is commonly meant a measure of how fast the partners come together. B1: the equilibrium dissociation constant (Kd) is 18.7 µM and 16.1 µM; the koff is 0.000588 s⁻¹ and 0.000614 s⁻¹; the kon is 339 M⁻¹ s⁻¹.

These data come from patent publication US20230365640A1.
